Measured values from the supplement of paper PMC11136658.

Test system: peptide library, one residue held at a place counted from the Y acceptor
Experiment: relative phosphorylation of the sub-library (ratio to the mean residue at this position); higher = residue favoured
How it was run: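 Within 384-well plates, purified recombinant kinases phosphorylated biotinylated Tyr-centred peptide library mixtures over 90 min using 50 μM ATP spiked with γ-32P-ATP; each mixture fixed one residue at one position from −5 to +5. Streptavidin membrane capture, rinsing, phosphorimaging and ImageQuant gave the intensities. These were normalized per position to the sum of the 18 randomized residues (16 for the Ser/Thr-free library) and multiplied by that number.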

FGFR2, construct: aa285-end, human, sequence (P21802 285-821, looked up): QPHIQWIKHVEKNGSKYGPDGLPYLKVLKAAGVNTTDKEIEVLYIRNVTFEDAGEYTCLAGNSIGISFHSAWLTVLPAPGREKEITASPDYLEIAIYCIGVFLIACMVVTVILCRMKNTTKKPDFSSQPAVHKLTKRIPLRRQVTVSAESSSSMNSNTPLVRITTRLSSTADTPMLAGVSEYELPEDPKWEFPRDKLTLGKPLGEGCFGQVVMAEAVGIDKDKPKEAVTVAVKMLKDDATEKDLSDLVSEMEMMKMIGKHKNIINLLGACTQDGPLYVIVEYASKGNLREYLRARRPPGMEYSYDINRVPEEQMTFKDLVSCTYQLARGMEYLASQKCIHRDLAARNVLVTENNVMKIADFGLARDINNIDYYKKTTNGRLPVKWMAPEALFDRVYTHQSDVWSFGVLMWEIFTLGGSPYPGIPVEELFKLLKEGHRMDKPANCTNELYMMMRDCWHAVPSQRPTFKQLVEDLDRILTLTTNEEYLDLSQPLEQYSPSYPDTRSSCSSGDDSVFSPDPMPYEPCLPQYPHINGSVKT
FGFR3, construct: aa397-end, human, sequence (P22607 397-806, looked up): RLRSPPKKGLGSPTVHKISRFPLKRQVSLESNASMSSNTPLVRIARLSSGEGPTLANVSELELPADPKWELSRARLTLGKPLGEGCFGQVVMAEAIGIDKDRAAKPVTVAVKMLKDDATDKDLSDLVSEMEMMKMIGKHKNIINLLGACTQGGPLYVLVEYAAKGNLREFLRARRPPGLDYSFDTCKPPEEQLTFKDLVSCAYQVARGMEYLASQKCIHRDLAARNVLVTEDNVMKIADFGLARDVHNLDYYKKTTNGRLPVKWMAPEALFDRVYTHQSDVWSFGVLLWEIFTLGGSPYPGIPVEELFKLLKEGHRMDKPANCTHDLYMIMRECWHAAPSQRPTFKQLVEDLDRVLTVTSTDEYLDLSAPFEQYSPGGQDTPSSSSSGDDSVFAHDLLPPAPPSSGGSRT
EPHA4, construct: aa610-887, human, sequence (P54764 610-887, looked up): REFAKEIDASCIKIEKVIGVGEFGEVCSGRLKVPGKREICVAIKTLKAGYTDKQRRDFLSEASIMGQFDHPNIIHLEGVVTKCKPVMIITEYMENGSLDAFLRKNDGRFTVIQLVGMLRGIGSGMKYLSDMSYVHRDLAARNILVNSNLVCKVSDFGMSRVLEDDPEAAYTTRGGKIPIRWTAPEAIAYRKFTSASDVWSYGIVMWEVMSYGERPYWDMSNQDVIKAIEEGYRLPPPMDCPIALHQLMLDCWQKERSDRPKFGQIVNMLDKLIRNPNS
EPHA5, construct: aa662-948, human, sequence (P54756 662-948, looked up): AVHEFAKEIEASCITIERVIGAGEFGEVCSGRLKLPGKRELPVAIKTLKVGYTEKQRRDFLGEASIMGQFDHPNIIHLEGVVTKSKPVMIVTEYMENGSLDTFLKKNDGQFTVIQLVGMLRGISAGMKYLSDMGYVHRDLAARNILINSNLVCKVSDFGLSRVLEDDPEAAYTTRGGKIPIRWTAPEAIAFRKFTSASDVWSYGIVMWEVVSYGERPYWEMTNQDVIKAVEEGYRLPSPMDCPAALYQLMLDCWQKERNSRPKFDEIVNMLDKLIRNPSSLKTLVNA

EPHA4, construct: aa610-887, human (from UniProt P54764)
relative phosphorylation
Conditions	at +1	at +2	at +3	at +4	at +5	at -1	at -2	at -3	at -4	at -5
A fixed	1.32	0.737	0.831	0.822	0.978	0.712	1.1	0.763	1.03	1.01
D fixed	1.31	2.05	0.748	1.15	1.18	2.37	1.27	1.2	1.28	1.11
E fixed	3.45	2.28	0.728	1.52	1.29	1.52	1.41	1.34	1.23	1.02
F fixed	0.73	1.14	1.22	0.976	1.25	0.885	0.778	1.24	1.16	1.08
G fixed	0.817	0.564	0.695	0.991	1.1	0.533	0.929	0.804	1.11	1.02
H fixed	0.631	0.779	0.833	1.07	0.933	0.672	0.865	0.873	0.867	0.959
I fixed	0.966	0.952	2.01	0.831	0.904	1.72	0.931	1.12	0.962	0.981
K fixed	0.473	0.527	0.525	0.679	0.67	0.513	0.825	0.594	0.836	0.965
L fixed	0.782	0.829	1.35	0.859	1.01	1.45	1.06	0.976	1.01	1.03
M fixed	1.06	0.86	1.13	0.923	0.938	0.802	0.777	0.851	0.902	1.01
N fixed	0.6	1.09	0.694	0.883	0.901	1.57	1.05	0.901	0.896	1
P fixed	0.509	0.757	1.5	1.25	1.44	0.641	1.42	0.94	1.12	1.05
Q fixed	1.02	0.797	0.708	0.909	0.82	0.638	1.07	0.753	1.04	0.95
R fixed	0.505	0.624	0.588	0.764	0.727	0.555	0.849	0.649	0.834	0.98
S fixed	0.757	0.756	0.685	0.897	0.945	0.689	1.1	0.851	0.919	0.921
T fixed	0.74	0.785	0.733	0.881	0.922	0.935	0.834	1.87	0.815	0.854
V fixed	1.38	0.997	1.59	0.84	0.879	1.08	0.95	0.959	0.861	0.918
W fixed	0.948	1.48	1.45	1.76	1.12	0.718	0.79	1.31	1.13	1.14
pThr fixed	1.73	2.97	0.917	1.23	1.13	2.06	1.1	0.813	0.997	0.912
pTyr fixed	1.87	8.24	1.28	1.75	1.33	2.22	1.09	1.01	1.09	1.07

EPHA5, construct: aa662-948, human (from UniProt P54756)
relative phosphorylation
Conditions	at +1	at +2	at +3	at +4	at +5	at -1	at -2	at -3	at -4	at -5
A fixed	1.5	0.555	0.644	0.75	1	0.44	1.06	0.741	1.03	0.879
D fixed	1.25	1.88	0.493	1.3	1.25	2.92	1.34	1.4	1.22	1.11
E fixed	3.4	2.46	0.463	1.35	1.27	1.59	1.56	1.74	1.5	1.07
F fixed	0.713	1.41	1.41	1.07	1.01	1.03	0.671	1.35	1.11	1.06
G fixed	0.825	0.275	0.426	1.21	1.2	0.215	1.14	0.85	1.18	1.14
H fixed	0.529	0.834	0.862	1.2	0.903	0.651	0.89	1.03	1.02	1.08
I fixed	1.05	0.877	2.62	0.716	0.778	1.83	0.725	0.845	0.83	0.973
K fixed	0.174	0.329	0.218	0.638	0.64	0.203	0.779	0.604	0.778	0.921
L fixed	0.847	0.869	1.85	0.707	0.916	1.74	0.789	0.877	1	0.983
M fixed	1.53	0.976	1.37	0.965	0.97	0.815	0.604	0.935	0.891	1.02
N fixed	0.48	1.18	0.477	0.805	0.906	2.59	1.28	1.12	0.966	1.11
P fixed	0.144	0.481	1.39	1.19	1.53	0.333	1.21	0.953	1.16	0.983
Q fixed	1.31	0.857	0.867	1.01	0.961	0.465	1.23	0.966	1.2	1.18
R fixed	0.224	0.47	0.35	0.832	0.763	0.232	0.883	0.751	0.885	0.968
S fixed	0.756	0.622	0.514	0.925	1.04	0.437	1.39	0.868	0.749	0.822
T fixed	0.62	0.772	0.563	0.937	0.859	0.924	0.885	0.893	0.64	0.824
V fixed	1.5	0.912	1.95	0.729	0.802	0.932	0.829	0.806	0.776	0.757
W fixed	1.15	2.25	1.52	1.68	1.2	0.662	0.729	1.29	1.05	1.12
pThr fixed	1.77	2.65	0.559	1.37	1.06	1.87	1.13	0.996	0.952	0.917
pTyr fixed	2.61	6.1	1.08	1.72	1.61	2.82	1.52	1.25	1.29	1.15

FGFR2, construct: aa285-end, human (from UniProt P21802)
relative phosphorylation
Conditions	at +1	at +2	at +3	at +4	at +5	at -1	at -2	at -3	at -4	at -5
A fixed	0.967	0.586	0.554	0.848	1	0.772	0.949	0.935	1.13	0.929
D fixed	0.362	0.991	0.671	0.93	1.01	2.28	1.18	1.26	1	1.09
E fixed	0.774	1.54	0.515	1.11	0.972	1.41	1.42	1.53	1.14	0.89
F fixed	1.69	1.57	1.53	1.06	0.992	0.988	0.642	0.852	0.949	0.962
G fixed	0.345	0.353	0.495	0.981	1.32	0.506	1.09	1.09	1.2	1.27
H fixed	1.84	0.971	0.988	1.14	0.943	1.51	1.28	1.16	1.2	1.21
I fixed	1.33	0.926	1.89	0.883	0.836	1.23	0.679	0.697	0.773	0.806
K fixed	0.55	0.524	0.303	0.868	0.819	0.5	1.19	1.01	1.13	1.33
L fixed	0.929	1.24	1.96	0.885	0.927	0.94	0.78	0.685	0.81	0.824
M fixed	1.06	1.41	1.87	1.01	0.979	0.689	0.674	0.774	0.812	0.842
N fixed	0.472	1.01	0.488	0.865	0.987	1.3	1.14	1.28	0.939	1.05
P fixed	1.11	0.612	0.666	1.16	1.47	0.815	1.08	0.924	1.17	1.01
Q fixed	0.953	0.78	0.776	0.97	0.832	1.04	1.12	0.892	1.03	0.952
R fixed	0.706	0.758	0.551	1.39	0.884	0.495	1.24	1.12	1.26	1.34
S fixed	0.733	0.665	0.545	0.966	1.02	0.681	1.14	1.13	0.854	0.939
T fixed	0.901	0.827	0.737	0.918	0.983	0.805	0.939	1.08	0.721	0.883
V fixed	1.55	1.02	1.62	0.872	1.05	0.97	0.752	0.662	0.757	0.714
W fixed	1.72	2.22	1.84	1.14	0.977	1.08	0.697	0.912	1.12	0.969
pThr fixed	0.729	1.43	0.766	0.731	0.782	1.25	1	1.1	0.883	0.849
pTyr fixed	2.75	2.82	0.616	1.15	0.835	2.48	1.25	1.2	1.1	0.913

FGFR3, construct: aa397-end, human (from UniProt P22607)
relative phosphorylation
Conditions	at +1	at +2	at +3	at +4	at +5	at -1	at -2	at -3	at -4	at -5
A fixed	0.858	0.5	0.465	0.794	1.13	0.737	0.867	0.899	1.1	0.986
D fixed	0.4	1.08	0.618	1.07	1.09	2.51	1.3	1.51	1.22	1.19
E fixed	0.764	1.5	0.479	1.15	0.944	1.71	1.58	1.73	1.42	1.01
F fixed	1.96	1.73	1.58	1.17	1.08	0.94	0.733	0.807	0.933	0.929
G fixed	0.32	0.27	0.378	0.913	1.22	0.452	1.05	0.939	1.25	1.15
H fixed	1.7	0.959	0.873	1.1	0.962	1.47	1.2	1.17	1.07	1.2
I fixed	1.19	0.857	2.07	0.872	0.763	1.1	0.57	0.533	0.738	0.651
K fixed	0.452	0.502	0.297	0.913	0.753	0.438	1.05	0.976	0.935	1.27
L fixed	1.01	1.46	2.18	0.962	0.881	1.05	0.863	0.663	0.759	0.75
M fixed	1.17	1.46	2.26	1.06	1.05	0.766	0.761	0.747	0.901	0.854
N fixed	0.458	1.01	0.416	0.828	0.943	1.33	1.24	1.35	0.924	1.15
P fixed	1.1	0.528	0.562	1.13	1.22	0.786	0.951	0.904	1.2	1.08
Q fixed	0.865	0.85	0.68	1.05	0.923	0.896	1.14	1.01	1.1	1.01
R fixed	0.577	0.607	0.428	0.953	0.814	0.396	1.1	1.04	1.01	1.27
S fixed	0.709	0.566	0.481	0.931	1.07	0.614	1.09	1.17	0.867	0.971
T fixed	0.867	0.712	0.604	0.814	1.03	0.797	1.01	0.946	0.704	0.82
V fixed	1.59	0.952	1.61	0.948	0.939	0.885	0.732	0.595	0.7	0.682
W fixed	2	2.47	2.02	1.34	1.18	1.14	0.767	1.02	1.17	1.02
pThr fixed	0.874	1.88	0.666	0.864	0.943	1.61	1.28	1.44	1.2	1.16
pTyr fixed	3.07	3.28	0.631	0.962	1	3.24	1.85	1.83	1.55	1.31
